# Source: patent publication US20220064272A1 (TAUC3 BIOLOGICS, published 2022)
# Several values for one entry are separate records, joined by “and”; a condition that tells them apart may be missing. Equal entries are not always repeated.
# Key:
# [1] = molecular target: T1, TauC3 (C-terminally truncated tau fragment ending at aspartate 421 of htau40) (human, UniProt P10636 1-738); assay: binding ELISA on coated TauC3, OD650; left table (HC variants)
# T1 construct: Generated and purified by Genscript; also called Human TauC3; recombinant TauC3 protein
# T1 sequence (P10636 other isoform, or with tags, fused parts or gaps): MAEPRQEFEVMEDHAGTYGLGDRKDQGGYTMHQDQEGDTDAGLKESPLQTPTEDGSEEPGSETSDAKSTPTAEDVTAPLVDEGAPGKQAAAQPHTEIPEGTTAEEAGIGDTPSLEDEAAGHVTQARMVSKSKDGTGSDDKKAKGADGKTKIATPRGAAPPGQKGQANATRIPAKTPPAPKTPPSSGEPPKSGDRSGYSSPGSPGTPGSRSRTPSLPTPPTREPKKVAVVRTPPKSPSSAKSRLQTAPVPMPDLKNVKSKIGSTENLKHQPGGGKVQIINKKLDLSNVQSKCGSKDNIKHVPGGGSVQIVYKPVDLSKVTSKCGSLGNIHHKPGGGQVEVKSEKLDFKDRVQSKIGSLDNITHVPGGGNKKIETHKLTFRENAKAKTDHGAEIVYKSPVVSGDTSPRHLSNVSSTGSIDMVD
# Method in brief: (§1)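 Chimeric or humanized IgG4κ antibodies were expressed in ExpiCHO cells and tested by binding ELISA against coated TauC3 antigen, which Genscript made and purified. Absorbance was read at 650 nm as the measure of binding. EC50 was calculated from the antibody concentration-response.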
# [2] = molecular target: T1, TauC3 (C-terminally truncated tau …); assay: binding ELISA on coated TauC3, OD650
# Method in brief: as §1
# [3] = molecular target: T1, TauC3 (C-terminally truncated tau …); assay: binding ELISA on coated TauC3, OD650; remark: listed apart in the source
# Method in brief: as §1
# [4] = molecular target: T1, TauC3 (C-terminally truncated tau …); assay: binding ELISA on coated TauC3, OD650; remark: listed apart in the source
# Method in brief: as §1
# [5] = molecular target: T1, TauC3 (C-terminally truncated tau …); assay: Biacore off-rate ranking, TauC3 amine-coupled on CM5, one antibody concentration; one-phase exponential decay fit
# Protocol: (§2) To further evaluate the binding data observed on the Octet, an off-rate ranking experiment was performed on the Biacore 200 instrument. Biacore offers greater selectivity than the Octet and facilitated the immobilization of TauC3 onto a CM5 chip via amine coupling which stabilizes the antigen. This produces higher quality data with stable baselines and good reproducible responses. Once TauC3 is immobilized, one concentration (5 nM) of antibody is added, followed by a dissociation and regeneration step (Section 8.20). The off-rates were fitted using a two-phase decay model (FIG. 25B) or a one phase decay fitting only the second off-rate (FIG. 25A). The candidates were then ranked based on the off-rates obtained using the fits and compared. The data agreed with the Octet results (albeit with a different ranking order), highlighting Tau01 HMKM, HMKO, HMKP, HMKN and HMKE as the humanized variants with the slowest off-rates. The lack of binding of FL Tau to chimeric and a humanized candidate was also confirmed by Biacore by loading the antibody onto a Protein G chip and adding 250 nM FL Tau.
# [6] = molecular target: T1, TauC3 (C-terminally truncated tau …); assay: Biacore off-rate ranking, TauC3 amine-coupled on CM5, one antibody concentration; two-phase decay fit, slow phase; design: unit not given here
# Protocol: as §2
# [7] = molecular target: T1, TauC3 (C-terminally truncated tau …); assay: binding ELISA on coated TauC3, OD650; remark: listed apart in the source
# Method in brief: as §1
# [8] = molecular target: T1, TauC3 (C-terminally truncated tau …); assay: binding ELISA on coated TauC3, OD650; right table (HM variants)
# Method in brief: as §1
EC50 [2] [pM],EC50 [3] [pM],EC50 [4] [pM],koff [5] [s⁻¹],Kslow [6],EC50 [8],Binder,further results
,765,,,,,"Tau01 HNKI (antibody, V domains shown, human IgG4 kappa (HuG4K)) VH: LVQVVESGGGLVQPGGSLKLSCAASGFTFNTYAMNWVRQASGKGLEWVGRIRSKSNNYATYYAASVKGRFTISRDDSKSMAYLQMDSLKTEDTAVYYCVGGGDFWGQGTLVTVSS VL: DIQMTQSPSSLSASVGDRVTITCRASQEISVYLGWYQQKPGKAPKRLIYGAFKLQSGVPSRFSGSRSGTEYTLTISSLQPEDFATYYCLQYVRYPWTFGGGTKVEIK",
1010,,,,,,"Tau01 HCKJ (antibody, V domains shown, human IgG4 kappa (HuG4K)) VH: LVQLVESGGGLVQPGGSLKLSCAASGFTFNTYAMNWVRQASGKGLEWVGRIRSKSNNYATYYAASVKGRFTISRDDSKSMAYLQMDSLKTEDTAVYYCVGGGDFWGQGTLVTVSS VL: DIQMTQSPSSLSASVGDRVTITCRASQEISVYLGWYQQKPGKAPKRLIYGAFSLQSGVPSRFSGSRSGTEFTLTISSLQPEDFATYYCLQYVRYPWTFGGGTKVEIK",EC50 [1]: 766 pM
,590,,,,,"Tau01 HNKB (antibody, V domains shown, human IgG4 kappa (HuG4K)) VH: LVQVVESGGGLVQPGGSLKLSCAASGFTFNTYAMNWVRQASGKGLEWVGRIRSKSNNYATYYAASVKGRFTISRDDSKSMAYLQMDSLKTEDTAVYYCVGGGDFWGQGTLVTVSS VL: DIQMTQSPSSLSASVGDRVTITCRASQEISVYLSWFQQKPGKAIKRLIYGAFTLQSGVPSRFSGSRSGSEYTLTISSLQPEDFATYYCLQYVRYPWTFGGGTKVEIK",
980,,,,,573 pM,"Tau01 HCKG (antibody, V domains shown, human IgG4 kappa (HuG4K)) VH: LVQLVESGGGLVQPGGSLKLSCAASGFTFNTYAMNWVRQASGKGLEWVGRIRSKSNNYATYYAASVKGRFTISRDDSKSMAYLQMDSLKTEDTAVYYCVGGGDFWGQGTLVTVSS VL: DIQMTQSPSSLSASVGDRVTITCRASQEISVYLGWYQQKPGKAPKRLIYGAFTLQSGVPSRFSGSRSGTEFTLTISSLQPEDFATYYCLQYVRYPWTFGGGTKVEIK",EC50 [1]: 573 pM
1240,,,,,,"Tau01 HCKE (antibody, V domains shown, human IgG4 kappa (HuG4K)) VH: LVQLVESGGGLVQPGGSLKLSCAASGFTFNTYAMNWVRQASGKGLEWVGRIRSKSNNYATYYAASVKGRFTISRDDSKSMAYLQMDSLKTEDTAVYYCVGGGDFWGQGTLVTVSS VL: DIQMTQSPSSLSASVGDRVTITCRASQEISVYLGWFQQKPGKAPKRLIYGAFKLQSGVPSRFSGSRSGTEFTLTISSLQPEDFATYYCLQYVRYPWTFGGGTKVEIK",EC50 [1]: 941 pM
,1090,,,,,"Tau01 HNKA (antibody, V domains shown, human IgG4 kappa (HuG4K)) VH: LVQVVESGGGLVQPGGSLKLSCAASGFTFNTYAMNWVRQASGKGLEWVGRIRSKSNNYATYYAASVKGRFTISRDDSKSMAYLQMDSLKTEDTAVYYCVGGGDFWGQGTLVTVSS VL: DIQMTQSPSSLSASVGDRVTITCRASQEISVYLGWYQQKPGKAPKRLIYGAFKLQSGVPSRFSGSRSGTEFTLTISSLQPEDFATYYCLQYVRYPWTFGGGTKVEIK",
,,556,0.000882,0.000815,642 pM and 462 pM,"Tau01 HMKA (antibody, V domains shown, human IgG4 kappa (HuG4K)) VH: LVQLVESGGGLVQPGGSLKLSCAASGFTFNTYAMNWVRQASGKGLEWVARIRSKSNNYATYYAASVKGRFTISRDDSKSMAYLQMDSLKTEDTAVYYCVGGGDFWGQGTLVTVSS VL: DIQMTQSPSSLSASVGDRVTITCRASQEISVYLGWYQQKPGKAPKRLIYGAFKLQSGVPSRFSGSRSGTEFTLTISSLQPEDFATYYCLQYVRYPWTFGGGTKVEIK",

# The remaining lines, values behind:
Binder,EC50 [2] [pM],EC50 [3] [pM],EC50 [4] [pM],koff [5] [s⁻¹],Kslow [6],EC50 [8],further results
"Tau01 HCKI (antibody, V domains shown, human IgG4 kappa (HuG4K)) VH: LVQLVESGGGLVQPGGSLKLSCAASGFTFNTYAMNWVRQASGKGLEWVGRIRSKSNNYATYYAASVKGRFTISRDDSKSMAYLQMDSLKTEDTAVYYCVGGGDFWGQGTLVTVSS VL: DIQMTQSPSSLSASVGDRVTITCRASQEISVYLGWYQQKPGKAPKRLIYGAFKLQSGVPSRFSGSRSGTEYTLTISSLQPEDFATYYCLQYVRYPWTFGGGTKVEIK",741,,,,,,EC50 [1]: 655 pM
"Tau01 HNKG (antibody, V domains shown, human IgG4 kappa (HuG4K)) VH: LVQVVESGGGLVQPGGSLKLSCAASGFTFNTYAMNWVRQASGKGLEWVGRIRSKSNNYATYYAASVKGRFTISRDDSKSMAYLQMDSLKTEDTAVYYCVGGGDFWGQGTLVTVSS VL: DIQMTQSPSSLSASVGDRVTITCRASQEISVYLGWYQQKPGKAPKRLIYGAFTLQSGVPSRFSGSRSGTEFTLTISSLQPEDFATYYCLQYVRYPWTFGGGTKVEIK",,1080,,,,,
"Tau01 HMKB (antibody, V domains shown, human IgG4 kappa (HuG4K)) VH: LVQLVESGGGLVQPGGSLKLSCAASGFTFNTYAMNWVRQASGKGLEWVARIRSKSNNYATYYAASVKGRFTISRDDSKSMAYLQMDSLKTEDTAVYYCVGGGDFWGQGTLVTVSS VL: DIQMTQSPSSLSASVGDRVTITCRASQEISVYLSWFQQKPGKAIKRLIYGAFTLQSGVPSRFSGSRSGSEYTLTISSLQPEDFATYYCLQYVRYPWTFGGGTKVEIK",,,412,0.00062,0.000138,,
"Tau01 HOKA (antibody, V domains shown, human IgG4 kappa (HuG4K)) VH: LVQVVESGGGLVQPGGSLKLSCAASGFTFNTYAMNWVRQASGKGLEWVARIRSKSNNYATYYAASVKGRFTISRDDSKSMAYLQMDSLKTEDTAVYYCVGGGDFWGQGTLVTVSS VL: DIQMTQSPSSLSASVGDRVTITCRASQEISVYLGWYQQKPGKAPKRLIYGAFKLQSGVPSRFSGSRSGTEFTLTISSLQPEDFATYYCLQYVRYPWTFGGGTKVEIK",,,,,,,EC50 [7]: 389 pM
"Tau01 HMKJ (antibody, V domains shown, human IgG4 kappa (HuG4K)) VH: LVQLVESGGGLVQPGGSLKLSCAASGFTFNTYAMNWVRQASGKGLEWVARIRSKSNNYATYYAASVKGRFTISRDDSKSMAYLQMDSLKTEDTAVYYCVGGGDFWGQGTLVTVSS VL: DIQMTQSPSSLSASVGDRVTITCRASQEISVYLGWYQQKPGKAPKRLIYGAFSLQSGVPSRFSGSRSGTEFTLTISSLQPEDFATYYCLQYVRYPWTFGGGTKVEIK",,,522,0.00136,0.00123,433 pM,
"HCKH (antibody, V domains shown, humanized variant, HC with KH; also called Tau01 HCKH HuG4K) VH: LVQLVESGGGLVQPGGSLKLSCAASGFTFNTYAMNWVRQASGKGLEWVGRIRSKSNNYATYYAASVKGRFTISRDDSKSMAYLQMDSLKTEDTAVYYCVGGGDFWGQGTLVTVSS VL: DIQMTQSPSSLSASVGDRVTITCRASQEISVYLGWYQQKPGKAPKRLIYGAFKLQSGVPSRFSGSRSGSEFTLTISSLQPEDFATYYCLQYVRYPWTFGGGTKVEIK",1030,,,,,,
"Tau01 HMKG (antibody, V domains shown, human IgG4 kappa (HuG4K)) VH: LVQLVESGGGLVQPGGSLKLSCAASGFTFNTYAMNWVRQASGKGLEWVARIRSKSNNYATYYAASVKGRFTISRDDSKSMAYLQMDSLKTEDTAVYYCVGGGDFWGQGTLVTVSS VL: DIQMTQSPSSLSASVGDRVTITCRASQEISVYLGWYQQKPGKAPKRLIYGAFTLQSGVPSRFSGSRSGTEFTLTISSLQPEDFATYYCLQYVRYPWTFGGGTKVEIK",,,543,0.000453,0.000384,515 pM and 607 pM,
"Tau01 HMKI (antibody, V domains shown, human IgG4 kappa (HuG4K)) VH: LVQLVESGGGLVQPGGSLKLSCAASGFTFNTYAMNWVRQASGKGLEWVARIRSKSNNYATYYAASVKGRFTISRDDSKSMAYLQMDSLKTEDTAVYYCVGGGDFWGQGTLVTVSS VL: DIQMTQSPSSLSASVGDRVTITCRASQEISVYLGWYQQKPGKAPKRLIYGAFKLQSGVPSRFSGSRSGTEYTLTISSLQPEDFATYYCLQYVRYPWTFGGGTKVEIK",,,549,0.00181,0.00179,474 pM and 458 pM,
"Tau01 HNKJ (antibody, V domains shown, human IgG4 kappa (HuG4K)) VH: LVQVVESGGGLVQPGGSLKLSCAASGFTFNTYAMNWVRQASGKGLEWVGRIRSKSNNYATYYAASVKGRFTISRDDSKSMAYLQMDSLKTEDTAVYYCVGGGDFWGQGTLVTVSS VL: DIQMTQSPSSLSASVGDRVTITCRASQEISVYLGWYQQKPGKAPKRLIYGAFSLQSGVPSRFSGSRSGTEFTLTISSLQPEDFATYYCLQYVRYPWTFGGGTKVEIK",,2560,,,,,
